According to US20110207796A1, “ALPHA-SYNUCLEIN KINASE” (Elan Pharma International Limited, priority 2008, published 2011):

Key:
[1] = molecular target: human alpha-synuclein (wild-type, recombinant) (human); test: cell-based or functional assay
[2] = molecular target: Polo like kinase 2 (PLK2) (human); test: cell-based or functional assay

Row | percentage of phospho-synuclein by ELISA, cDNA transfected into PEAK-Syn cells [1] [%] | percent phospho-synuclein by ELISA, PLK2, synuclein and synphilin co-transfected into HEK cells [2] [%] | Binder
1 | 8.9 |  | Protein kinase, cGMP-dependent, regulatory, Type I (enzyme, human, UniProt Q13976-2 1-686, looked up) MGTLRDLQYALQEKIEELRQRDALIDELELELDQKDELIQKLQNELDKYRSVIRPATQQAQKQSASTLQGEPRTKRQAISAEPTAFDIQDLSHVTLPFYPKSPQSKDLIKEAILDNDFMKNLELSQIQEIVDCMYPVEYGKDSCIIKEGDVGSLVYVMEDGKVEVTKEGVKLCTMGPGKVFGELAILYNCTRTATVKTLVNVKLWAIDRQCFQTIMMRTGLIKHTEYMEFLKSVPTFQSLPEEILSKLADVLEETHYENGEYIIRQGARGDTFFIISKGTVNVTREDSPSEDPVFLRTLGKGDWFGEKALQGEDVRTANVIAAEAVTCLVIDRDSFKHLIGGLDDVSNKAYEDAEAKAKYEAEAAFFANLKLSDFNIIDTLGVGGFGRVELVQLKSEESKTFAMKILKKRHIVDTRQQEHIRSEKQIMQGAHSDFIVRLYRTFKDSKYLYMLMEACLGGELWTILRDRGSFEDSTTRFYTACVVEAFAYLHSKGIIYRDLKPENLILDHRGYAKLVDFGFAKKIGFGKKTWTFCGTPEYVAPEIILNKGHDISADYWSLGILMYELLTGSPPFSGPDPMKTYNIILRGIDMIEFPKKIAKNAANLIKKLCRDNPSERLGNLKNGVKDIQKHKWFEGFNWEGLRKGTLTPPIIPSVASPTDTSNFDSFPEDNDEPPPDDNSGWDIDF
2 |  | 83.3 | synphilin (protein, UniProt Q9Y6H5 1-919, looked up) MEAPEYLDLDEIDFSDDISYSVTSLKTIPELCRRCDTQNEDRSVSSSSWNCGISTLITNTQKPTGIADVYSKFRPVKRVSPLKHQPETLENNESDDQKNQKVVEYQKGGESDLGPQPQELGPGDGVGGPPGKSSEPSTSLGELEHYDLDMDEILDVPYIKSSQQLASFTKVTSEKRILGLCTTINGLSGKACSTGSSESSSSNMAPFCVLSPVKSPHLRKASAVIHDQHKLSTEETEISPPLVKCGSAYEPENQSKDFLNKTFSDPHGRKVEKTTPDCQLRAFHLQSSAAESKPEEQVSGLNRTSSQGPEERSEYLKKVKSILNIVKEGQISLLPHLAADNLDKIHDENGNNLLHIAASQGHAECLQHLTSLMGEDCLNERNTEKLTPAGLAIKNGQLECVRWMVSETEAIAELSCSKDFPSLIHYAGCYGQEKILLWLLQFMQEQGISLDEVDQDGNSAVHVASQHGYLGCIQTLVEYGANVTMQNHAGEKPSQSAERQGHTLCSRYLVVVETCMSLASQVVKLTKQLKEQTVERVTLQNQLQQFLEAQKSEGKSLPSSPSSPSSPASRKSQWKSPDADDDSVAKSKPGVQEGIQVLGSLSASSRARPKAKDEDSDKILRQLLGKEISENVCTQEKLSLEFQDAQASSRNSKKIPLEKRELKLARLRQLMQRSLSESDTDSNNSEDPKTTPVRKADRPRPQPIVESVESMDSAESLHLMIKKHTLASGGRRFPFSIKASKSLDGHSPSPTSESSEPDLESQYPGSGSIPPNQPSGDPQQPSPDSTAAQKVATSPKSALKSPSSKRRTSQNLKLRVTFEEPVVQMEQPSLELNGEKDKDKGRTLQRTSTSNESGDQLKRPFGAFRSIMETLSGNQNNNNNYQAANQLKTSTLPLTSLGRKTDAKGNPASSASKGKNKAA
